Target: Siglec-specific antibody for Siglec-9 (R&D Systems MAB1139)
Test: ForteBio Octet; construct captured on AHC biosensor, antibody titrated; 1:1 fit

Kd: < 10 nM
Substance: Sig-9-Fc (Fc fusion)
